{
  "source": "patent US20080176953A1",
  "about": "“Methods and compositions for treatment of ocular neovascularization and neural injury” (Allergan, Inc., priority 2000, published 2008)",
  "key": {"photoreceptors": {"tested_on": "photoreceptors", "conditions": "intravitreal injection of purified NGF; cited from earlier work"}, "brain neurons in culture": {"tested_on": "brain neurons in culture", "conditions": "cited from earlier work"}, "[1]": {"tested_on": "\"wet\" age-related macular degeneration (ARMD)", "assay": "Photodynamic therapy (verteporfin) combined with intravenous PEDF in a patient, Example 1", "type": "in vivo", "experimental": "The day of scheduled PDT treatment, the patient is administered 6 mg/M^2 of verteporfin. […] The treatment requires irradiation of the […]."}, "retinoblastoma cells": {"tested_on": "retinoblastoma cells", "conditions": "cited from earlier work"}},
  "data": [
    {"molecule": "NGF: polypeptide known to have neuroprotective and neurotrophic effects", "values": [
      {"measurement": "survival of photoreceptors", "setting": "photoreceptors", "value": "Increased survival of photoreceptors"}
    ]},
    {"molecule": "PEDF: polypeptide originally isolated from cultured fetal human retinal pigment epithelial cells, approximate molecular weight 50 kDa (protein, UniProt P36955 20-418, looked up) Pigment epithelium-derived …: QNPASPPEEGSPDPDSTGALVEEEDPFFKVPVNKLAAAVSNFGYDLYRVRSSTSPTTNVLLSPLSVATALSALSLGAEQRTESIIHRALYYDLISSPDIHGTYKELLDTVTAPQKNLKSASRIVFEKKLRIKSSFVAPLEKSYGTRPRVLTGNPRLDLQEINNWVQAQMKGKLARSTKEIPDEISILLLGVAHFKGQWVTKFDSRKTSLEDFYLDEERTVRVPMMSDPKAVLRYGLDSDLSCKIAQLPLTGSMSIIFFLPLKVTQNLTLIEESLTSEFIHDIDRELKTVQAVLTVPKLKLSYEGEVTKSLQEMKLQSLFDSPDFSKITGKPIKLTQVEHRAGFEWNEDGAGTTPSPGLQPAHLTFPLDYHLNQPFIFVLRDTDTGALLFIGKILDPRGP", "values": [
      {"measurement": "life of brain neurons in culture", "setting": "brain neurons in culture", "value": "prolongs the life"},
      {"measurement": "protection against acute neurotoxic insult", "setting": "brain neurons in culture; e.g., glutamate toxicity", "value": "protects neurons"},
      {"measurement": "visual acuity", "setting": "[1]; 4 and 12 weeks following combined PDT and PEDF treatment", "value": "no discernable loss of vision"},
      {"measurement": "renewed neovascularization", "setting": "[1]; 12 weeks following PDT treatment", "value": "No evidence of renewed neovascularization"},
      {"measurement": "optic nerve axon loss", "setting": "[1]; after PDT with irradiation of the optic nerve", "value": "no evidence of optic nerve axon loss"},
      {"measurement": "Fluorescein angiography, leakage in the treated tissue", "setting": "[1]; after one week and throughout the monitoring period", "value": "minimal leakage"},
      {"measurement": "visual inspection of the retina (affected areas)", "setting": "[1]; one week following PDT, continuing through 12 week monitoring, intravenous PEDF every two days, verteporfin 6 mg/M^2", "value": "healthy with no whitening"},
      {"measurement": "differentiation of the retinoblastoma cells", "setting": "retinoblastoma cells", "value": "induces differentiation"},
      {"measurement": "activity after heat incubation", "setting": "retinoblastoma cells; incubation of PEDF at 75° C.", "value": "does not prevent PEDF from differentiating retinoblastoma cells"},
      {"measurement": "elaboration of neuron-like processes", "setting": "retinoblastoma cells; undifferentiated retinoblastoma cells", "value": "stimulate the elaboration of neuron-like processes"}
    ]}
  ]
}
